# Data published in paper PMC3791423.
# What was measured:
# PspA_(1–186) (E. coli) [1] = target: PspA_(1–186) (E. coli) (UniProt P0AFM6)
# [2] = target: single-chain linked PspF_(1–275) WT/WT dimer (E. coli) (UniProt P37344); assay: SEC; linked PspF_(1–275) dimers injected at 70 μM, without and with PspA_(1–186), no nucleotide, 4 °C, Yarra Sec-S3000 column; apparent oligomers
# PspA_(1–186) (E. coli) [3] = target: PspA_(1–186) (E. coli) (UniProt P0AFM6); assay: as above
# [4] = target: single-chain linked PspF_(1–275) WT/W56A dimer (E. coli) (UniProt P37344); assay: as above
Substance,reduction of RPO formation (supercoiled nifH promoter) in the presence of PspA (1–186) (PspA_(1–186) (E. coli) [1]) [%],stoichiometry N (PspF (1–275) subunits) [2],stoichiometry N (PspA (1–186) subunits per PspF hexamer) (PspA_(1–186) (E. coli) [3]),stoichiometry N (PspF (1–275) subunits) [4]
single-chain linked PspF_(1–275) WT/WT dimer (from UniProt P37344 1-275; P37344 1-275),100,6,6,–
single-chain linked PspF_(1–275) WT/W56A dimer (from UniProt P37344 1-275; P37344 1-275),10,–,–,6
